Laboratory results taken from patent US20240124563A1.

What was measured:
[1] = biological target: human MSLN full-length protein on transfected cells (CHO-K1-hMSLN clones 2C8, 2D11, 2C5; HEK293T-hMSLN clones B8, 2A4, 2A7) (human) (UniProt Q13421); assay: FACS, CHO-K1-hMSLN-2C8 cells, antibody 0.032 nM
[2] = biological target: monkey MSLN full-length protein on HEK293T cells (monkey); assay: FACS, HEK293T-monkey-MSLN cells, antibody 20 nM
[3] = biological target: human MSLN full-length protein, recombinant, on CHO-K1 or HEK293T cells (human) (UniProt Q13421); assay: competitive FACS on CHO-K1-human MSLN-2C8 cells vs Biotin-Tab142; competitor at 100 nM
[4] = biological target: human MSLN full-length protein, recombinant, on CHO-K1 or HEK293T cells (human) (UniProt Q13421); assay: competitive FACS on CHO-K1-human MSLN-2C8 cells vs Biotin-Tab142; competitor at 0.8 nM
[5] = biological target: human MSLN protein endogenously expressed on tumor cells (Hela, OVCAR3) (human) (UniProt Q13421); assay: FACS, OVCAR3 cells, antibody 0.00128 nM
[6] = biological target: human MSLN full-length protein, recombinant, on CHO-K1 or HEK293T cells (human) (UniProt Q13421); assay: competitive FACS on CHO-K1-human MSLN-2C8 cells vs Biotin-Tab142; competitor at 0.064 nM
[7] = biological target: human MSLN full-length protein, recombinant, on CHO-K1 or HEK293T cells (human) (UniProt Q13421); assay: FACS, HEK293T-hMSLN-B8 cells, antibody 20 nM
[8] = biological target: monkey MSLN full-length protein on HEK293T cells (monkey); assay: FACS, HEK293T-monkey-MSLN cells, antibody 0.8 nM
[9] = biological target: monkey MSLN full-length protein on HEK293T cells (monkey); assay: FACS, HEK293T-monkey-MSLN cells, antibody 4 nM
[10] = biological target: human MSLN protein endogenously expressed on tumor cells (Hela, OVCAR3) (human) (UniProt Q13421); assay: FACS, OVCAR3 cells, antibody 0.0064 nM
[11] = biological target: monkey MSLN full-length protein on HEK293T cells (monkey); assay: FACS, HEK293T-monkey MSLN cells
[12] = biological target: human MSLN full-length protein, recombinant, on CHO-K1 or HEK293T cells (human) (UniProt Q13421); assay: competitive FACS on CHO-K1-human MSLN-2C8 cells vs Biotin-Tab131; competitor at 0.064 nM
[13] = biological target: human MSLN full-length protein on transfected cells (CHO-K1-hMSLN clones 2C8, 2D11, 2C5; HEK293T-hMSLN clones B8, 2A4, 2A7) (human) (UniProt Q13421); assay: FACS, CHO-K1-hMSLN-2C8 cells, antibody 0.0064 nM
[14] = biological target: human MSLN-R3-rFc protein (human) (UniProt Q13421); assay: ELISA, antibody 0.032 nM
[15] = biological target: human MSLN full-length protein, recombinant, on CHO-K1 or HEK293T cells (human) (UniProt Q13421); assay: FACS, HEK293T-hMSLN-B8 cells
[16] = biological target: human MSLN full-length protein, recombinant, on CHO-K1 or HEK293T cells (human) (UniProt Q13421); assay: FACS, CHO-K1-hMSLN-2C8 cells
[17] = biological target: human MSLN full-length protein, recombinant, on CHO-K1 or HEK293T cells (human) (UniProt Q13421); assay: competitive FACS on CHO-K1-human MSLN-2C8 cells vs Biotin-Tab142; competitor at 0.0128 nM
[18] = biological target: human MSLN protein endogenously expressed on tumor cells (Hela, OVCAR3) (human) (UniProt Q13421); assay: FACS, OVCAR3 cells, antibody 4 nM
[19] = biological target: human MSLN protein endogenously expressed on tumor cells (Hela, OVCAR3) (human) (UniProt Q13421); assay: FACS, OVCAR3 cells
[20] = biological target: human MSLN protein endogenously expressed on tumor cells (Hela, OVCAR3) (human) (UniProt Q13421); assay: FACS, Hela cells
[21] = biological target: human MSLN protein endogenously expressed on tumor cells (Hela, OVCAR3) (human) (UniProt Q13421); assay: FACS, OVCAR3 cells, antibody 2 nM
[22] = biological target: human MSLN-R3-rFc protein (human) (UniProt Q13421); assay: ELISA, antibody 1 nM
[23] = biological target: human MSLN-R3-3 polypeptide (purchased from GL Biochem, Cat. No. 406676) (human); assay: ELISA, antibody 1 nM
[24] = biological target: human MSLN full-length protein, recombinant, on CHO-K1 or HEK293T cells (human) (UniProt Q13421); assay: competitive FACS on CHO-K1-human MSLN-2C8 cells vs Biotin-Tab142; competitor at 0.32 nM
[25] = biological target: human MSLN protein endogenously expressed on tumor cells (Hela, OVCAR3) (human) (UniProt Q13421); assay: FACS, OVCAR3 cells, antibody 0.8 nM
[26] = biological target: human MSLN full-length protein on transfected cells (CHO-K1-hMSLN clones 2C8, 2D11, 2C5; HEK293T-hMSLN clones B8, 2A4, 2A7) (human) (UniProt Q13421); assay: FACS, CHO-K1-hMSLN-2C8 cells, antibody 4 nM
[27] = biological target: human MSLN full-length protein, recombinant, on CHO-K1 or HEK293T cells (human) (UniProt Q13421); assay: competitive FACS on CHO-K1-human MSLN-2C8 cells vs Biotin-Tab142; competitor at 0.032 nM
[28] = biological target: human MSLN protein endogenously expressed on tumor cells (Hela, OVCAR3) (human) (UniProt Q13421); assay: FACS, OVCAR3 cells, antibody 0.16 nM
[29] = biological target: human MSLN full-length protein, recombinant, on CHO-K1 or HEK293T cells (human) (UniProt Q13421); assay: competitive FACS on CHO-K1-human MSLN-2C8 cells vs Biotin-Tab142; competitor at 1.6 nM
[30] = biological target: monkey MSLN full-length protein on HEK293T cells (monkey); assay: FACS, HEK293T-monkey-MSLN cells, antibody 0.16 nM

Sequence of human MSLN full-length protein on transfected cells (CHO-K1-hMSLN clones 2C8, 2D11, 2C5; HEK293T-hMSLN clones B8, 2A4, 2A7) (human) (Q13421 other isoform, or with tags, fused parts or gaps limits assumed): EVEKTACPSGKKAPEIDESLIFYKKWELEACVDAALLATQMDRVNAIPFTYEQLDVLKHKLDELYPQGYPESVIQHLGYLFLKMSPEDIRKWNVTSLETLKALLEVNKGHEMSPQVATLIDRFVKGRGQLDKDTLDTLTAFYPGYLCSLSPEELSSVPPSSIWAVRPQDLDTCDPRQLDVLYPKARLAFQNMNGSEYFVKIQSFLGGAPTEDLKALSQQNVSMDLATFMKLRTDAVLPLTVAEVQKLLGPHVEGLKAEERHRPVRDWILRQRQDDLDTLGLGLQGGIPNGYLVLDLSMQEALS
Sequence of human MSLN full-length protein, recombinant, on CHO-K1 or HEK293T cells (human) (Q13421 other isoform, or with tags, fused parts or gaps limits assumed): as above
Sequence of human MSLN protein endogenously expressed on tumor cells (Hela, OVCAR3) (human) (Q13421 other isoform, or with tags, fused parts or gaps): as the sequence (Q13421 other isoform, or with tags, fused parts or gaps limits assumed) above, with P14R counted along it
Sequence of human MSLN-R3-3 polypeptide (purchased from GL Biochem, Cat. No. 406676) (human) (peptide, as listed by the source): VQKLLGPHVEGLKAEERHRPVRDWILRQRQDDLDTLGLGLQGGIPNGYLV

FACS signal (MFI) [1]: 59
FACS signal (MFI) [2]: 84
MFI of Biotin-Tab142 [3]: 41200
MFI of Biotin-Tab142 [4]: 44300
FACS signal (MFI) [5]: 75
MFI of Biotin-Tab142 [6]: 23600
MFI [7]: 68
FACS signal (MFI) [8]: 87
FACS signal (MFI) [9]: 85
FACS signal (MFI) [10]: 74
Max MFI [11]: 104
MFI of Biotin-Tab131 [12]: 12500
FACS signal (MFI) [13]: 65
OD450 nm [14]: 0.11
Max MFI [15]: 77
Max MFI [16]: 80
MFI of Biotin-Tab142 [17]: 24100
FACS signal (MFI) [18]: 74
Max MFI [19]: 147
Max MFI [20]: 75
MFI [21]: 255
OD450 nm [22]: 0.09
OD450 nm [23]: 0.06
MFI of Biotin-Tab142 [24]: 23300
FACS signal (MFI) [25]: 76
FACS signal (MFI) [26]: 110
MFI of Biotin-Tab142 [27]: 43700
FACS signal (MFI) [28]: 74
MFI of Biotin-Tab142 [29]: 22700
FACS signal (MFI) [30]: 85
Substance: hIgG1 (antibody)
